Consider 6 molecules from US20140120095A1 (Boehringer Ingelheim, published 2014).

Substitutions are numbered along the chain they refer to. Where two headings read alike, the source gives them in different places.

Assay [1] has as its target T1, recombinant human DLL4 (human, UniProt Q9NR61 25-522).
T1 construct: also called rhDLL4; hDLL4
The assay can be described thus: hDLL4 ELISA screen, periplasmic extract. (In general: ELISA stands for enzyme-linked immunosorbent assay.)

The target of assay [2] is T1, recombinant human DLL4. Nature of the assay: Biacore off-rate, periplasmic extract; heterogeneous fit, fast off-rate.
Assay [3] deals with T1, recombinant human DLL4. The assay can be described thus: Biacore off-rate, periplasmic extract; heterogeneous fit, slow off-rate.
Assay [4] addresses T1, recombinant human DLL4. Nature of the assay: AlphaScreen biot-hDLL4/hNotch1-Fc, periplasmic extract. In general terms: Alpha assays give light when donor and acceptor beads are brought close together.
Assay [5] addresses T2, recombinant human VEGF165 (human, UniProt P15692-4 27-191, biotinylated in the competition assays).
T2 construct: Bought protein; also called hVEGF165; rhVEGF165
Nature of the assay: binding ELISA, coated rhVEGF165.
Target sequence in this assay (P15692 other isoform, or with tags, fused parts or gaps): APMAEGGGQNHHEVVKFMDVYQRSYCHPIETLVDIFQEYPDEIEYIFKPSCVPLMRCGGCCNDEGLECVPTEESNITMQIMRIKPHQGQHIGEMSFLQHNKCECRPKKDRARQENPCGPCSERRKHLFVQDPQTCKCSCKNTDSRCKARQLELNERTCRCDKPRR

The target of assay [6] is T2, recombinant human VEGF165. The assay can be described thus: SPR Biacore, immobilised hVEGF165, two state reaction model. How it is done: Samples are injected for 2 min and allowed to dissociate up to 20 min at a flow rate of 45 μl/min. In between sample injections, the chip surface is regenerated with 100 mM HCl. HBS-EP+(Hepes buffer pH7.4+EDTA) is used as running buffer. Binding curves are fitted using a Two State Reaction model by Biacore T100 Evaluation Software v2.0.1.
^{(a)}KD = kd1/kₐ₁ * (kd2/(kd2 + kₐ₂)) ^{(b)}Curves are fitted using a Two State Reaction model by Biacore T100 Evaluation Software v2.0.1
Target sequence in this assay (P15692 other isoform, or with tags, fused parts or gaps): as above
Background: Surface plasmon resonance follows binding to a sensor surface in real time, without labels.

Assay [7] deals with T2, recombinant human VEGF165. The assay can be described thus: AlphaScreen, hVEGF165/hVEGFR1-Fc competition. On the set-up: % inhibition: concentration or dose not given beside the values. How it is done:
(§1) Finally, streptavidin donor beads (20 μg/ml) are added and after 1 hour of incubation in the dark, fluorescence is measured on the Envision microplate reader.
Target sequence in this assay (P15692 other isoform, or with tags, fused parts or gaps): as above

Assay [8] has as its target T3, VEGF (used to stimulate HUVEC cells) (UniProt P15692-4 27-191, limits assumed). The assay can be described thus: cell-based or functional assay.
Target sequence in this assay (P15692 other isoform, or with tags, fused parts or gaps limits assumed): as the sequence (P15692 other isoform, or with tags, fused parts or gaps) above
Assay [9] addresses T2, recombinant human VEGF165. The assay can be described thus: AlphaScreen, hVEGF165/hVEGFR1-Fc competition. How it is done:
as §1
Target sequence in this assay (P15692 other isoform, or with tags, fused parts or gaps): as above

The target in assay [10] is T2, recombinant human VEGF165. Nature of the assay: AlphaScreen, hVEGF165/hVEGFR2-Fc competition. How it is done: as §1
Target sequence in this assay (P15692 other isoform, or with tags, fused parts or gaps): as above
Assay [11] addresses T4, recombinant mouse VEGF164 (mouse, UniProt Q00731-2 27-190, biotinylated as the labelled ligand of the mVEGF164/mVEGFR2 AlphaScreen).
T4 construct: also called mVEGF164; rmVEGF164
T4 sequence (looked up): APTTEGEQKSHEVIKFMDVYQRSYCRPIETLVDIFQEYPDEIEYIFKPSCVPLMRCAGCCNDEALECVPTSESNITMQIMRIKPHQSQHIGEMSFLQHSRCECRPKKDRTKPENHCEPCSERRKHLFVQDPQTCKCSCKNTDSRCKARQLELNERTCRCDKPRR
The assay can be described thus: binding ELISA, coated rmVEGF164. How it is done:
Cross-reactivity to mouse VEGF164 is determined using a binding ELISA. […] Wells are blocked with a casein solution (1% in PBS). […] A mouse VEGF164 reactive mAb is included as positive control.

Assay [12] addresses T2, recombinant human VEGF165. Nature of the assay: ELISA, hVEGF165/hVEGFR1-Fc competition. On the set-up: % inhibition: concentration or dose not given beside the values.
Target sequence in this assay (P15692 other isoform, or with tags, fused parts or gaps): as the sequence (P15692 other isoform, or with tags, fused parts or gaps) above
Assay [13] deals with T2, recombinant human VEGF165. Nature of the assay: AlphaScreen, hVEGF165/hVEGFR2-Fc competition. The arrangement: % inhibition: concentration or dose not given beside the values. How it is done:
as §1

Assay [14] concerns the target T2, recombinant human VEGF165. The assay can be described thus: ELISA, hVEGF165/hVEGFR2-Fc competition. The arrangement: % inhibition: concentration or dose not given beside the values.
For assay [15], the target named is T3, VEGF (used to stimulate HUVEC cells). Nature of the assay: cell-based or functional assay. This is another data set of the same source.
Target sequence in this assay (P15692 other isoform, or with tags, fused parts or gaps limits assumed): as the sequence (P15692 other isoform, or with tags, fused parts or gaps) above
Assay [16] concerns the target T2, recombinant human VEGF165. The assay can be described thus: SPR Biacore, VEGF165.
Assay [17] addresses T3, VEGF (used to stimulate HUVEC cells). The assay can be described thus: cell-based or functional assay. The source holds these as a separate data set.
The target of assay [18] is T2, recombinant human VEGF165. The assay can be described thus: AlphaScreen, hVEGF165/hVEGFR2-Fc competition. This is another data set of the same source.
Assay [19] concerns the target T2, recombinant human VEGF165. The assay can be described thus: AlphaScreen, hVEGF165/hVEGFR1-Fc competition, -HSA.
The target in assay [20] is T2, recombinant human VEGF165. Nature of the assay: AlphaScreen, hVEGF165/hVEGFR2-Fc competition, -HSA.
Assay [21] addresses T2, recombinant human VEGF165. The assay can be described thus: AlphaScreen, hVEGF165/hVEGFR2-Fc competition, +5 uM HSA.
For assay [22], the target named is T1, recombinant human DLL4. Nature of the assay: competition AlphaScreen, biot-hDLL4/hNotch1-Fc; partial inhibitor.
For the next assay, the target named is T5, human DLL1 (human, UniProt O00548 18-545, limits assumed).
T5 construct: also called hDLL1
T5 sequence (looked up): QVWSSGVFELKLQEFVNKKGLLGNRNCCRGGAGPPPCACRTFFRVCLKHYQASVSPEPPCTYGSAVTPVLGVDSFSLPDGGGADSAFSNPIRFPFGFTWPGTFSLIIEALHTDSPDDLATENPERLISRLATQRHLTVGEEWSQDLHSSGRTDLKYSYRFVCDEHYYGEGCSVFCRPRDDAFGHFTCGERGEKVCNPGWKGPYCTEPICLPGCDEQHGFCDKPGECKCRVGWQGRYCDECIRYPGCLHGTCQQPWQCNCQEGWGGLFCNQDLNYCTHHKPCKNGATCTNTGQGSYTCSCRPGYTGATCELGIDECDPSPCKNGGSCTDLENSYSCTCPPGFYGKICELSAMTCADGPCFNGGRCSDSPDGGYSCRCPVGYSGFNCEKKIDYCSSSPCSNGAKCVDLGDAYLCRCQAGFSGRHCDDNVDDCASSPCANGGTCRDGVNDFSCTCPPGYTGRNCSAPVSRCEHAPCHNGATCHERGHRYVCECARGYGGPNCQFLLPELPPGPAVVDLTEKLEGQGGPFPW
The assay can be described thus: binding ELISA on coated recombinant human DLL1, OD 405 nm. How it is done:
Absence of binding to homologous ligands human DLL1 and human Jagged-1 is assessed via solid phase binding assay (ELISA). In brief, human DLL1 (Alexis, San Diego, Calif., USA) and human Jagged-1 (Alexis, San Diego, Calif., USA) are coated overnight at 4° C. at 1 μg/mL in a 96-well MaxiSorp plate (Nunc, Wiesbaden, Germany). Wells are blocked with a casein solution (1% in PBS). VHHs are applied as dilution series and binding is detected using a mouse anti-myc (Roche) and an anti-mouse-AP conjugate (Sigma, St. Louis, Mo., USA).

The target of assay [23] is T1, recombinant human DLL4. Nature of the assay: binding ELISA, coated rhDLL4. How it is done: (§2) In order to determine cross-reactivity to mouse DII4 a binding ELISA is performed. […] Wells are blocked with a casein solution (1% in PBS). VHHs are applied as dilution series and binding is detected using a mouse anti-myc (Roche) and an anti-mouse-AP conjugate (Sigma, St Louis, Mo., USA) (FIG. 7 A-H). As reference, binding to human DII4 is measured.

Another assay has as its target T6, human Jagged-1 (human, UniProt P78504 34-1067, limits assumed).
T6 construct: also called hJagged-1; hJAG1
The assay can be described thus: binding ELISA on coated recombinant human Jagged-1, OD 405 nm. An outline of the steps:
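Plates coated overnight at 4° C with 1 μg/mL ligand, blocked with 1% casein in PBS. VHH dilution series applied; bound VHH detected via mouse anti-myc then anti-mouse-AP conjugate.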

The next assay deals with T7, recombinant mouse DLL4 (mouse, UniProt Q9JI71 27-532).
T7 construct: extracellular domain; also called rmDLL4; mDLL4
Nature of the assay: binding ELISA on coated recombinant mouse DLL4, OD 405 nm. How it is done: as §2

T1 sequence (Q9NR61 25-522): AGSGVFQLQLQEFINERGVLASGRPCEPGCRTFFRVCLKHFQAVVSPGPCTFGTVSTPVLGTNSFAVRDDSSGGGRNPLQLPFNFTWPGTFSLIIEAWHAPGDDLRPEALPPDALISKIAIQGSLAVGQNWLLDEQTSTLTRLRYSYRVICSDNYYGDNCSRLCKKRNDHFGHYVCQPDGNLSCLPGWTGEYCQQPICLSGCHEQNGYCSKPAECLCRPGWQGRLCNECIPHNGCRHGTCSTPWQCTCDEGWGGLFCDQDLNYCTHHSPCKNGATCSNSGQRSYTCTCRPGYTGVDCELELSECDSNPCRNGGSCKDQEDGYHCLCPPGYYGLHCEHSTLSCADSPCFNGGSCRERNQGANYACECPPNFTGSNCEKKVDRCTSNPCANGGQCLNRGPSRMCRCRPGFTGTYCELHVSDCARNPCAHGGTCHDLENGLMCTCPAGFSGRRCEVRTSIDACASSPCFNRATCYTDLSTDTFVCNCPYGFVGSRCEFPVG
T7 sequence (Q9JI71 27-532): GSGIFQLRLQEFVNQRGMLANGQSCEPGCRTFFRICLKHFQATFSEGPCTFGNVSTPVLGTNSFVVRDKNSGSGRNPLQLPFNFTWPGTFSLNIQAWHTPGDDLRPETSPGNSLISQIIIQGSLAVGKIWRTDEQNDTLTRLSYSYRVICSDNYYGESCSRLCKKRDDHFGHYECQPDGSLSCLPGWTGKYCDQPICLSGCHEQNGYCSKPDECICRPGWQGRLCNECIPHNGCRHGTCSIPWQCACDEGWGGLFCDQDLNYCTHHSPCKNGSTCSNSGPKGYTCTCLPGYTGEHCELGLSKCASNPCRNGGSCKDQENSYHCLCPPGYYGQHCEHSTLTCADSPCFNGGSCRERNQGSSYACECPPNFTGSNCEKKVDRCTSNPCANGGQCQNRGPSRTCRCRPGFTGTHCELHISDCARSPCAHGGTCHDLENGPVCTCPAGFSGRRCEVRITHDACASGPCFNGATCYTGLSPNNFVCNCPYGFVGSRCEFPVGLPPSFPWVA

B1: DLLBII17B03 (VHH)
VHH: EVQLVESGGGLVQPGGSLRLSCAASGFTFENYALGWFRQAPGKEREWVSCISSSDGTTYYADSVKGRFTISRDNVKNTVYLQMNRLKPEDTAIYYCALSLGSSWCAYDYWGQGTQVTVSS
Regarding B1, the “% inh” value with recombinant human DLL4 [1] is 76%; with recombinant human DLL4 [4] it was 77%. The koff in the assay with recombinant human DLL4 [2] stood at 0.0012 s⁻¹; with recombinant human DLL4 [3], 0.00022 s⁻¹.

B2: VEGFBII021 (VHH, not shown: small tags and cut ends)
chain: EVQLVESGGGLVQTGDSLRLSCEVSGRTFSSYSMGWFRQAQGKEREFVVAISKGGYKYDSVSLEGRFTISKDNAKNTVYLQINSLKPEDTAVYYCASSRAYGSSRLRLADTYEYWGQGTQVTVSSGGGGSGGGGSGGGGSGGGGSGGGGSGGGGSGGGGSGGGGSEVQLVESGGGLVQPGGSLRLSCVASGIRFMSMAWYRQAPGKHRELVARISSGGTTAYVDSVKGRFTISRDNSKNTVYLQMNSLKAEDTAVYYCNTFSSRPNPWGAGTQVTVSS
notes: Bivalent (heterodimeric) anti-VEGF VHH; also called VEGFBII23B04-40GS-5B05
Turning to B2, the EC50 in assay [5] is 334 pM. In assay [6], the equilibrium dissociation constant (Kd) was determined as 70 pM, the ka1 amounted to 1.2e+06 M⁻¹ s⁻¹, the ka2 is 0.023 s⁻¹ and the kd1 amounted to 0.011 s⁻¹. Further, the kd2 in assay [6] turned out to be 0.00019 s⁻¹. In assay [7], the “% inhibition” value came out at 100% and the half-inhibitory concentration (IC50) was 12 pM. Moreover, in [8], the “% inhibition, VEGF HUVEC Erk phosphorylation assay” value amounted to 103% and the “IC50, VEGF HUVEC Erk phosphorylation assay” value came out at 210 pM. In assay [9], the “% inhibition” value is 100% and the IC50 came out at 16 pM. Besides, in assay [10], the half-inhibitory concentration (IC50) came to 9 pM. Moreover, the EC50 in [11] was 502 pM. Further, in [12], the “% inhibition” value is 97% and the IC50 is 254 pM. Moreover, in assay [13], the “% inhibition” value was 100% and the IC50 is 7 pM. Also, in assay [14], the “% inhibition” value worked out at 100% and the IC50 was 204 pM. In addition, in [15], the “% inhibition, VEGF HUVEC proliferation assay” value amounted to 98% and the “IC50, VEGF HUVEC proliferation assay” value was 400 pM.

B3: VEGFBII037 (VHH)
VHH: DVQLVESGGGLVQPGGSLRLSCAASGRTFSSYSMGWFRQAPGKEREFVVAISKGGYKYDAVSLEGRFTISRDNAKNTVYLQMNSLRPEDTAVYYCASSRAYGSSRLRLADTYEYWGQGTLVTVSS
notes: also called VEGFBII0037
On to B3, for which, in [16], the Kd is 270 pM. Besides, in assay [17], the “% inhibition, VEGF HUVEC proliferation assay” value was 78% and the “IC50, VEGF HUVEC proliferation assay” value is 1540 pM. In addition, in [18], the “% inhibition” value came to 100% and the 50% inhibitory concentration (IC50) is 300 pM.

B4: VEGFBII038 (VHH)
VHH: B3 VHH with M82I
notes: also called VEGFBII0038
Regarding B4, in assay [16], the Kd was determined as 360 pM. In [17], the “% inhibition, VEGF HUVEC proliferation assay” value turned out to be 92%. Besides, in assay [17], the “IC50, VEGF HUVEC proliferation assay” value was 600 pM. Further, the figures for the “% inh” value in [19] and in assay [20] were 50% and 100%, respectively. Further, the IC50 in [19] worked out at 200 pM; in assay [20] it was 200 pM; in assay [18] it was 143 pM; in assay [21] it was 100 pM. Moreover, the “% inhibition” value in assay [18] came to 100%.

B5: DLLBII08C11 (VHH)
VHH: EVQLVESGGGLVQAGGSLRLSCAASGFTFDDYAIGWFRQAPGKEREGVSCISSHDRTTYYADSVKGRFTISSDNAKNTVYLQMNSLKPEDTAVYYCAADPLVCGYNDPRLADYWGQGTQVTVSS
notes: also called DLLBII8C11
As for B5, the “% inh” value with recombinant human DLL4 [1] was determined as 57%. Also, the IC50 with recombinant human DLL4 [22] was 700 pM. Moreover, the binding result with human DLL1, in the assay with human Jagged-1 and in the assay with recombinant mouse DLL4 was “no binding (tested: 2.5e-7 M)” each time. Moreover, the concentration giving a half-maximal response (EC50) with recombinant human DLL4 [23] was 1100 pM.

B6: DLLBII17F10 (VHH)
VHH: EVQLVESGGGLVQAGGSLRLSCASSGRTLLNYAMGWFRQAPGKEREFVSGINWSGGSTYYADSVKGRFTISRDNAENTVYLHMNSLKPEDTAVYYCAAAHDNYWFTDDSLGRGLKYWGQGTQVTVSS
Turning to B6, the entries for the “% inh” value with recombinant human DLL4 [1] and with recombinant human DLL4 [4] were 98% and 88%, respectively. Further, the koff in the assay with recombinant human DLL4 [2] is 0.0011 s⁻¹; in the assay with recombinant human DLL4 [3], 0.00031 s⁻¹. For the same molecule, the EC50 in the assay with recombinant human DLL4 [23] came out at 900 pM.

As a reminder, the koff is the rate constant with which the complex falls apart. For orientation: EC50 means the concentration that produces a half-maximal response. Usually Kd stands for the free concentration of one partner at which half of the binding sites on the other are occupied at equilibrium, for simple one-to-one binding. What is called % inhibition is the change of the read-out against control, counted positive when it falls. Usually IC50 stands for the concentration at which inhibition is half-maximal.
